Read-outs that look alike come from different tables or passages of the source.
Legend:
[1] = molecular target: T1, rabTFPI K1K2 (rabbit, limits assumed); assay: ELISA, TFPI on streptavidin plate
T1 construct: also called Rabbit TFPI K1K2
T1 chain: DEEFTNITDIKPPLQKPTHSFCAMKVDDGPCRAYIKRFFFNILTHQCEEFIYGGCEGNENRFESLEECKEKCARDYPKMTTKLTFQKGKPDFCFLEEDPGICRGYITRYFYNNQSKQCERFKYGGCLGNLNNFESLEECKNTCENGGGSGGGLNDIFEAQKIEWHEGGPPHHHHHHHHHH

[2] = molecular target: T1, rabTFPI K1K2; assay: SPR, antibody ligand, TFPI analyte
[3] = molecular target: T1, rabTFPI K1K2; assay: SPR, antibody ligand, TFPI analyte
[4] = molecular target: T2, cynTFPI K1K2 (cynomolgus monkey); assay: SPR, antibody ligand, TFPI analyte
T2 construct: also called Cynomolgus Monkey TFPI K1K2; cyno TFPI K1K2

Binder	EC50 [1]	Kd [2]	koff [2]	kon [2]	Kd [3]	koff [3]	kon [3]	koff [4]
mu-hu 4D8 chimera (antibody, human IgG1, kappa, Mouse variable regions on human IgG1 3M and human kappa constant regions; also called hu-mu 4D8 chimera; mouse-human chimeric antibody 4D8) heavy: EVLLQQSGPELVKPGASVKIPCKASGYTFTDYNLDWVKQSHGKSLEWIGDINPINGATLYNQKFKGKATLTVDQSSSTAYMELRSLTSEDTAVYYCSIYYGDYDAMDYWGQGASVTVSSASTKGPSVFPLAPSSKSTSGGTAALGCLVKDYFPEPVTVSWNSGALTSGVHTFPAVLQSSGLYSLSSVVTVPSSSLGTQTYICNVNHKPSNTKVDKKVEPKSCDKTHTCPPCPAPEAAGAPSVFLFPPKPKDTLMISRTPEVTCVVVDVSHEDPEVKFNWYVDGVEVHNAKTKPREEQYNSTYRVVSVLTVLHQDWLNGKEYKCKVSNKALPAPIEKTISKAKGQPREPQVYTLPPSREEMTKNQVSLTCLVKGFYPSDIAVEWESNGQPENNYKTTPPVLDSDGSFFLYSKLTVDKSRWQQGNVFSCSVMHEALHNHYTQKSLSLSPG light: DIVMTQSHKFMSTSVGDRVSITCKASQDVHTAVAWYQQKPGQSPRLLIYWASTRHTGVPDRFTGCGSGTDYTLTISSVQAEDLALYYCQQHYTTPYTFGGGTKLEMKRTVAAPSVFIFPPSDEQLKSGTASVVCLLNNFYPREAKVQWKVDNALQSGNSQESVTEQDSKDSTYSLSSTLTLSKADYEKHKVYACEVTHQGLSSPVTKSFNRGEC	0.068 nM	0.63 nM	0.00126 s⁻¹	2.01e+06 M⁻¹ s⁻¹	–	–	–	–
2A8 (antibody, human IgG1, lambda, V domains shown) VH: QVQLVESGGGLVQPGGSLRLSCAASGFTFRSYGMSWVRQAPGKGLEWVSSIRGSSSSTYYADSVKGRFTISRDNSKNTLYLQMNSLRAEDTAVYYCARKYRYWFDYWGQGTLVTVSS VL: DIELTQPPSVSVAPGQTARISCSGDNLRNYYAHWYQQKPGQAPVVVIYYDNNRPSGIPERFSGSNSGNTATLTISGTQAEDEADYYCQSWDDGVPVFGGGTKLTVLG	–	–	–	–	1.69 nM	0.00123 s⁻¹	730000 M⁻¹ s⁻¹	0.0306 s⁻¹

— patent EP4792830A2 (Pfizer Inc., dated 2026)
